Data reported in US20090215639A1.

Target: human full length IgG1 (Calbiochem) (human)
Assay: BIAcore SPR, IgG1 immobilized, soluble receptor injected

koff [s⁻¹]	fold faster koff against FcγRIIIaV158 [fold]	Substance
0.0139	–	FcγRIIIa V158 (receptor)
0.0858	6	FcγRIIIa F158 (receptor)
